Assay results as given in patent publication US11535824B2, “Nuclear transfer” (Sung Kwang Medical Foundation, priority 2015, dated 2022).

Columns and labels:
cancer models = details: variety of in vitro and in vivo cancer models; cited from earlier work
[1] = tested on: primary human fibroblasts; details: without MYC or KLF4; cited from earlier work
H4R3 = details: cited from earlier work
SCNT-generated embryos = details: cited from earlier work
adult stem cells = details: cited from earlier work
[2] = tested on: mouse embryos obtained from SCNT; assay: CPP-CARM1 protein treatment of 8-cell SCNT embryos; development to blastocyst; assay type: cell-based; details: for % of developed to BLs: calculated from 2 cell cleavaged embryos
Description: The above preliminary results were extended in further studies utilizing protein treatment. SCNT oocytes were cultured with protein of CARM1 on third day after formation of fertilized embryo to investigate the influence on the development rate into blastocyst. Specifically, mouse embryos obtained from SCNT were cultured to 8-cell stage in embryo culture medium (potassium simplex-optimized medium, KSOM; Millipore, Danvers, Mass.) containing 10% SPS (Sage, Trumbull, Conn.). And then, 8-cell embryos were cultured at 37° C. and 5% CO2 for 48 h in embryo culture medium with 2 μg/ml CPP-CARM1 recombinant protein or DsRed protein (control—non-functional protein) under mineral oil (Sage). Embryonic development was monitored for a further 2 days. CARM1 or DsRed cDNA was inserted into a pET vector to construct an expression plasmid for CARM1 conjugated to 7× arginine (a cell-penetrating peptide (CPP) domain) and a 6×His-tag. The CPP-CARM1 protein expression vector was transformed into BL21 (DE3) pLysS-competent cells (Stratagene Inc., La Jolla, Calif.). Transformed cells were cultured and induced by 1 mM isopropyl-1-thio-β-D-galactopyranoside (IPTG) for 8 h at 20° C. to produce the CPP-CARM1 or DsRed proteins.

For `CC[C@H](C)n1cc(C)c2c(C(=O)NCc3c(C)cc(C)[nH]c3=O)cc(-c3ccc(N4CCNCC4)nc3)cc21` [GSK126], the anticancer chemotherapeutic activity (cancer models) is listed as “exhibit anticancer chemotherapeutic activity”.

For `CCCC(CCC)C(=O)O` [Valproic acid], the “reprogramming with two factors, OCT4 and SOX2” value [1] is listed as “enables the reprogramming”.

In the case of `Nc1ccc(S(=O)(=O)c2ccc(NCN3C(=O)NC(=O)C(=O)C3=O)cc2)cc1` [allantodapsone], the “methylation at H4R3” value (H4R3) is listed as “hypomethylation”.

For `CC(/C=C/C(=O)NO)=C\[C@@H](C)C(=O)c1ccc(N(C)C)cc1` [trichostatin A], the “chromosome decondensation and nuclear volume” value (SCNT-generated embryos; SCNT-generated embryos) is listed as “increase” and the cloning efficiency (SCNT-generated embryos; additive in nuclear transfer) is listed as “improve cloning efficiency”.

For `CC(C)N(C[C@H]1O[C@@H](n2cnc3c(N)ncnc32)[C@H](O)[C@@H]1O)[C@H]1C[C@@H](CCc2nc3cc(C(C)(C)C)ccc3[nH]2)C1` [EPZ5676], the anticancer chemotherapeutic activity (cancer models) is listed as “exhibit anticancer chemotherapeutic activity”.

For `Cc1cc(C)c(CNC(=O)c2cc(-c3ccc(CN4CCOCC4)cc3)cc3c2cnn3C2CCCC2)c(=O)[nH]1` [EPZ005687], the anticancer chemotherapeutic activity (cancer models) is listed as “exhibit anticancer chemotherapeutic activity”.

B1: coactivator-associated arginine methyltransferase 1 (protein, UniProt Q86X55 2-608, looked up)
Histone-arginine …: AAAAAAVGPGAGGAGSAVPGGAGPCATVSVFPGARLLTIGDANGEIQRHAEQQALRLEVRAGPDSAGIALYSHEDVCVFKCSVSRETECSRVGKQSFIITLGCNSVLIQFATPNDFCSFYNILKTCRGHTLERSVFSERTEESSAVQYFQFYGYLSQQQNMMQDYVRTGTYQRAILQNHTDFKDKIVLDVGCGSGILSFFAAQAGARKIYAVEASTMAQHAEVLVKSNNLTDRIVVIPGKVEEVSLPEQVDIIISEPMGYMLFNERMLESYLHAKKYLKPSGNMFPTIGDVHLAPFTDEQLYMEQFTKANFWYQPSFHGVDLSALRGAAVDEYFRQPVVDTFDIRILMAKSVKYTVNFLEAKEGDLHRIEIPFKFHMLHSGLVHGLAFWFDVAFIGSIMTVWLSTAPTEPLTHWYQVRCLFQSPLFAKAGDTLSGTCLLIANKRQSYDISIVAQVDQTGSKSSNLLDLKNPFFRYTGTTPSPPPGSHYTSPSENMWNTGSTYNLSSGMAVAGMPTAYDLSSVIASGSSVGHNNLIPLANTGIVNHTHSRMGSIMSTGIVQGSSGAQGSGGGSTSAHYAVNSQFTMGGPAISMASPMSIPTNTMHYGS
notes: member of the protein arginine methyltransferase (PRMT) family
In the case of B1, the “expression of Oct-4, Sox-2 and nanog” value (adult stem cells) is listed as “upregulated”, the “No. of developed to BLs” value ([2]; Total of three experiments) is listed as 26 and the “% of developed to BLs” value ([2]; Total of three experiments) is listed as “(38.2) %”. For the same molecule, the “% of developed to BLs” value ([2]; experiment 1) was “(46.2) %”, the “No. of developed to BLs” value ([2]; experiment 1, treatment D 3, cumulus donor cell, KSOM) was 12 and the “% of developed to BLs” value ([2]; experiment 2) was “(40) %”. The “No. of developed to BLs” value ([2]; experiment 2, treatment D 3, cumulus donor cell, KSOM) was 10, the “% of developed to BLs” value ([2]; experiment 3) was “(23.5) %” and the “No. of developed to BLs” value ([2]; experiment 3, treatment D 3, cumulus donor cell, KSOM) was 4.
